Positions count from the first letter of the chain named.

The labels stand for the following.
B1: GLS3000 H34E (antibody, name in Kabat numbering, V domains shown)
VH: QVQLVESGGGVVQPGRSLRLSCAASGFTFSNAWMHWVRQAPGKGLEWVAQIKAKSNNYATYYAESVKGRFTISRDDSKNSLYLQMNSLKTEDTAVYYCRYVHYGAYYGVDAWGQGTTVTVSS
VL: DIVMTQSPLSLPVTPGEPASISCRSSQSLVHSNRNTYLEWYQQKPGQAPRLLIYKVSNRFSGVPDRFSGSGSGTDFTLKISRVEAEDVGVYYCGQGTQVPYTFGQGTKLEIK
notes: one-arm format as m2
B2: GLS3000 L27bP (antibody, name in Kabat numbering, V domains shown)
VH: B1 VH
VL: B1 VL with L29P, E39H
notes: one-arm format as m2
B3: GLS3000 L27bE (antibody, name in Kabat numbering, V domains shown)
VH: B1 VH
VL: B1 VL with L29E, E39H
notes: one-arm format as m2
B4: GLS3000 K50S (antibody, name in Kabat numbering, V domains shown)
VH: B1 VH
VL: B1 VL with E39H, K55S
notes: one-arm format as m2
B5: GLS3000 L33F (antibody, name in Kabat numbering, V domains shown)
VH: B1 VH
VL: B1 VL with L38F, E39H
notes: one-arm format as m2
B6: GLS3000 K50Y (antibody, name in Kabat numbering, V domains shown)
VH: B1 VH
VL: B1 VL with E39H, K55Y
notes: one-arm format as m2
B7: GLS3000 H34T (antibody, name in Kabat numbering, V domains shown)
VH: B1 VH
VL: B1 VL with E39T
notes: one-arm format as m2
B8: GLS3000 L27bV (antibody, name in Kabat numbering, V domains shown)
VH: B1 VH
VL: B1 VL with L29V, E39H
notes: one-arm format as m2
B9: GLS3000 H34N (antibody, name in Kabat numbering, V domains shown)
VH: B1 VH
VL: B1 VL with E39N
notes: one-arm format as m2
B10: GLS3000 H34Y (antibody, name in Kabat numbering, V domains shown)
VH: B1 VH
VL: B1 VL with E39Y
notes: one-arm format as m2
B11: GLS3000 H34Q (antibody, name in Kabat numbering, V domains shown)
VH: B1 VH
VL: B1 VL with E39Q
notes: one-arm format as m2
B12: GLS3000 K50D (antibody, name in Kabat numbering, V domains shown)
VH: B1 VH
VL: B1 VL with E39H, K55D
notes: one-arm format as m2
B13: GLS3000 H34G (antibody, name in Kabat numbering, V domains shown)
VH: B1 VH
VL: B1 VL with E39G
notes: one-arm format as m2
B14: GLS3000 H34L (antibody, name in Kabat numbering, V domains shown)
VH: B1 VH
VL: B1 VL with E39L
notes: one-arm format as m2
B15: GLS3000 L27bF (antibody, name in Kabat numbering, V domains shown)
VH: B1 VH
VL: B1 VL with L29F, E39H
notes: one-arm format as m2
B16: GLS3000 K50G (antibody, name in Kabat numbering, V domains shown)
VH: B1 VH
VL: B1 VL with E39H, K55G
notes: one-arm format as m2
B17: GLS3000 H34M (antibody, name in Kabat numbering, V domains shown)
VH: B1 VH
VL: B1 VL with E39M
notes: one-arm format as m2
B18: GLS3000 H34F (antibody, name in Kabat numbering, V domains shown)
VH: B1 VH
VL: B1 VL with E39F
notes: one-arm format as m2
B19: GLS3000 K50A (antibody, name in Kabat numbering, V domains shown)
VH: B1 VH
VL: B1 VL with E39H, K55A
notes: one-arm format as m2
B20: GLS3000 L27bS (antibody, name in Kabat numbering, V domains shown)
VH: B1 VH
VL: B1 VL with L29S, E39H
notes: one-arm format as m2
B21: GLS3000 H34R (antibody, name in Kabat numbering, V domains shown)
VH: B1 VH
VL: B1 VL with E39R
notes: one-arm format as m2
B22: GLS3000 K50P (antibody, name in Kabat numbering, V domains shown)
VH: B1 VH
VL: B1 VL with E39H, K55P
notes: one-arm format as m2
B23: GLS3000 K50E (antibody, name in Kabat numbering, V domains shown)
VH: B1 VH
VL: B1 VL with E39H, K55E
notes: one-arm format as m2
B24: GLS3000 L27bW (antibody, name in Kabat numbering, V domains shown)
VH: B1 VH
VL: B1 VL with L29W, E39H
notes: one-arm format as m2
B25: GLS3000 K50L (antibody, name in Kabat numbering, V domains shown)
VH: B1 VH
VL: B1 VL with E39H, K55L
notes: one-arm format as m2
B26: GLS3000 L33A (antibody, name in Kabat numbering, V domains shown)
VH: B1 VH
VL: B1 VL with L38A, E39H
notes: one-arm format as m2
B27: GLS3000 K74T (antibody, name in Kabat numbering, V domains shown)
VH: B1 VH
VL: B1 VL with E39H, K79T
notes: one-arm format as m2
B28: GLS3000 L33D (antibody, name in Kabat numbering, V domains shown)
VH: B1 VH
VL: B1 VL with L38D, E39H
notes: one-arm format as m2
B29: GLS3000 H34P (antibody, name in Kabat numbering, V domains shown)
VH: B1 VH
VL: B1 VL with E39P
notes: one-arm format as m2
B30: GLS3000 K107E (antibody, name in Kabat numbering, V domains shown)
VH: B1 VH
VL: B1 VL with E39H, K112E
notes: one-arm format as m2
B31: GLS3000 H34K (antibody, name in Kabat numbering, V domains shown)
VH: B1 VH
VL: B1 VL with E39K
notes: one-arm format as m2
B32: GLS3000 H34V (antibody, name in Kabat numbering, V domains shown)
VH: B1 VH
VL: B1 VL with E39V
notes: one-arm format as m2
B33: GLS3000 H34W (antibody, name in Kabat numbering, V domains shown)
VH: B1 VH
VL: B1 VL with E39W
notes: one-arm format as m2
B34: GLS3000 K50R (antibody, name in Kabat numbering, V domains shown)
VH: B1 VH
VL: B1 VL with E39H, K55R
notes: one-arm format as m2
B35: GLS3000 H34I (antibody, name in Kabat numbering, V domains shown)
VH: B1 VH
VL: B1 VL with E39I
notes: one-arm format as m2
B36: GLS3000 L27bM (antibody, name in Kabat numbering, V domains shown)
VH: B1 VH
VL: B1 VL with L29M, E39H
notes: one-arm format as m2
B37: GLS3000 L27bD (antibody, name in Kabat numbering, V domains shown)
VH: B1 VH
VL: B1 VL with L29D, E39H
notes: one-arm format as m2
B38: GLS3000 K50T (antibody, name in Kabat numbering, V domains shown)
VH: B1 VH
VL: B1 VL with E39H, K55T
notes: one-arm format as m2
B39: GLS3000 L27bI (antibody, name in Kabat numbering, V domains shown)
VH: B1 VH
VL: B1 VL with L29I, E39H
notes: one-arm format as m2
B40: GLS3000 L33E (antibody, name in Kabat numbering, V domains shown)
VH: B1 VH
VL: B1 VL with L38E, E39H
notes: one-arm format as m2
B41: GLS3000 L27bY (antibody, name in Kabat numbering, V domains shown)
VH: B1 VH
VL: B1 VL with L29Y, E39H
notes: one-arm format as m2
B42: GLS3000 K50Q (antibody, name in Kabat numbering, V domains shown)
VH: B1 VH
VL: B1 VL with E39H, K55Q
notes: one-arm format as m2
B43: GLS3000 H34S (antibody, name in Kabat numbering, V domains shown)
VH: B1 VH
VL: B1 VL with E39S
notes: one-arm format as m2

The experiment deals with CD3ε homodimer protein (human, UniProt P07766 23-126, limits assumed). The experiment in a line: SPR, immobilized CD3ε homodimer.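 Note: biacore T200 surface plasmon resonance at 25 °C, antibody variants flowed as analytes over amine-coupled CD3ε homodimer on a CM4 chip, variant binding amount divided by that of GLS3000 antibody.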 For orientation: SPR reads the build-up and loss of mass on a sensor chip optically.
Chain of CD3ε homodimer protein (P07766 23-126 limits assumed): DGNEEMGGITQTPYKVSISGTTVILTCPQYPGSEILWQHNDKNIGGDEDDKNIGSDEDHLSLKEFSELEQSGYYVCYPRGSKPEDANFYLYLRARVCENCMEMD
Method: Each one-amino acid altered form constructed, expressed, and purified in the paragraph (6-2) was evaluated using Biacore T200 (GE Healthcare Japan Corp.). An appropriate amount of CD3ε homodimer protein was immobilized onto Sensor chip CM4 (GE Healthcare Japan Corp.) by the amine coupling method. Then, the antibody having an appropriate concentration was injected thereto as an analyte and allowed to interact with the CD3ε homodimer protein on the sensor chip. Then, the sensor chip was regenerated by the injection of 10 mmol/L glycine-HCl (pH 1.5). The assay was conducted at 25° C., and HBS-EP+ (GE Healthcare Japan Corp.) was used as a running buffer. […] Each parameter was calculated using Biacore T200 Evaluation Software (GE Healthcare Japan Corp.).
Specifically, when the amount of the GLS3000-containing antibody bound was defined as X and the amount of the L chain one-amino acid altered form bound was defined as Y, a value of Z (ratio of amounts bound)=Y/X was used.
For B1, the “ratio of amounts bound (vs GLS3000)” value came out at 0.23.

B2: the “ratio of amounts bound (vs GLS3000)” value is 0.91.

For B3, the “ratio of amounts bound (vs GLS3000)” value is 0.17.

For B4, the “ratio of amounts bound (vs GLS3000)” value came out at 0.23.

Take B5: the “ratio of amounts bound (vs GLS3000)” value was determined as 0.78.

As to B6, the “ratio of amounts bound (vs GLS3000)” value stood at 0.24.

For B7, the “ratio of amounts bound (vs GLS3000)” value was 0.89.

Consider B8, for which the “ratio of amounts bound (vs GLS3000)” value is 1.12.

On to B9, for which the “ratio of amounts bound (vs GLS3000)” value is 0.65.

On to B10, for which the “ratio of amounts bound (vs GLS3000)” value was found to be 0.59.

Consider B11, for which the “ratio of amounts bound (vs GLS3000)” value is 0.25.

For B12, the “ratio of amounts bound (vs GLS3000)” value was 0.22.

Consider B13, for which the “ratio of amounts bound (vs GLS3000)” value was 1.02.

Take B14: the “ratio of amounts bound (vs GLS3000)” value stood at 0.59.

B15: the “ratio of amounts bound (vs GLS3000)” value was found to be 0.42.

For B16, the “ratio of amounts bound (vs GLS3000)” value amounted to 0.16.

Consider B17, for which the “ratio of amounts bound (vs GLS3000)” value came to 0.35.

As for B18, the “ratio of amounts bound (vs GLS3000)” value came out at 0.27.

Regarding B19, the “ratio of amounts bound (vs GLS3000)” value worked out at 0.23.

B20: the “ratio of amounts bound (vs GLS3000)” value amounted to 0.71.

For the molecule B21, the “ratio of amounts bound (vs GLS3000)” value was determined as 0.2.

B22: the “ratio of amounts bound (vs GLS3000)” value worked out at 0.3.

On to B23, for which the “ratio of amounts bound (vs GLS3000)” value is 0.24.

On to B24, for which the “ratio of amounts bound (vs GLS3000)” value came out at 0.26.

As for B25, the “ratio of amounts bound (vs GLS3000)” value was found to be 0.24.

As for B26, the “ratio of amounts bound (vs GLS3000)” value is 0.85.

Take B27: the “ratio of amounts bound (vs GLS3000)” value stood at 0.84.

Consider B28, for which the “ratio of amounts bound (vs GLS3000)” value came out at 0.17.

For the molecule B29, the “ratio of amounts bound (vs GLS3000)” value turned out to be 0.34.

B30: the “ratio of amounts bound (vs GLS3000)” value is 0.94.

On to B31, for which the “ratio of amounts bound (vs GLS3000)” value was 2.17.

As for B32, the “ratio of amounts bound (vs GLS3000)” value turned out to be 0.85.

For B33, the “ratio of amounts bound (vs GLS3000)” value came to 0.21.

For the molecule B34, the “ratio of amounts bound (vs GLS3000)” value amounted to 0.5.

As to B35, the “ratio of amounts bound (vs GLS3000)” value was 0.65.

With B36, the “ratio of amounts bound (vs GLS3000)” value was 0.71.

Take B37: the “ratio of amounts bound (vs GLS3000)” value came to 0.17.

With B38, the “ratio of amounts bound (vs GLS3000)” value amounted to 0.19.

With B39, the “ratio of amounts bound (vs GLS3000)” value was 1.19.

As to B40, the “ratio of amounts bound (vs GLS3000)” value worked out at 0.72.

As to B41, the “ratio of amounts bound (vs GLS3000)” value turned out to be 0.25.

Turning to B42, the “ratio of amounts bound (vs GLS3000)” value was 0.18.

For the molecule B43, the “ratio of amounts bound (vs GLS3000)” value is 0.78.

(Values after US20220040297A1 (Chugai, published 2022).)
